Data: patent publication US20200046796A1 (TECHNION RESEARCH AND DEVELOPMENT FOUNDATION, published 2020)

T1: α-Catenin (endogenous, from HaCaT cells), P35221
T1 chain: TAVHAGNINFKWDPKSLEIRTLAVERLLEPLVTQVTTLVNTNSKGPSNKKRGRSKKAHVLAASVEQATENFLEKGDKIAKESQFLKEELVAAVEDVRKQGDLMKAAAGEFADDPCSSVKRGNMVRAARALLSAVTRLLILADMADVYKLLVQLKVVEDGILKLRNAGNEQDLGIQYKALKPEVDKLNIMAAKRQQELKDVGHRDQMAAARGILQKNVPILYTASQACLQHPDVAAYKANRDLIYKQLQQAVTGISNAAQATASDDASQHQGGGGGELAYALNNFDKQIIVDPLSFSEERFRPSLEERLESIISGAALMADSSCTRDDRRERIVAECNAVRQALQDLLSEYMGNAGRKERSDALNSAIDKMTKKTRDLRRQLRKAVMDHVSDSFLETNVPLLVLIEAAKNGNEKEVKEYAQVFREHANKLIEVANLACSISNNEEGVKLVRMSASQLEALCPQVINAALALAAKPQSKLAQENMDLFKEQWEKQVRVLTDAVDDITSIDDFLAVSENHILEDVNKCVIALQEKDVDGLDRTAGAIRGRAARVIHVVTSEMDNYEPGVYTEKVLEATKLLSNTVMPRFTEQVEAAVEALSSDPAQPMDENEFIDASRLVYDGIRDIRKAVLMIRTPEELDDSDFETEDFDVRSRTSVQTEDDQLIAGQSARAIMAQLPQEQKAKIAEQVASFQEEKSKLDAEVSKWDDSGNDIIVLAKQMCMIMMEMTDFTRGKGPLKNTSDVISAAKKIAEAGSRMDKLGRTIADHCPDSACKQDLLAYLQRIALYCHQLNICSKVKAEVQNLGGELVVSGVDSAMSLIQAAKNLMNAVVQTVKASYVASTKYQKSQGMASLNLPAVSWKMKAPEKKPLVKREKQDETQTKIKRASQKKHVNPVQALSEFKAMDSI

T2: Recombinant human α-Catenin protein
T2 chain: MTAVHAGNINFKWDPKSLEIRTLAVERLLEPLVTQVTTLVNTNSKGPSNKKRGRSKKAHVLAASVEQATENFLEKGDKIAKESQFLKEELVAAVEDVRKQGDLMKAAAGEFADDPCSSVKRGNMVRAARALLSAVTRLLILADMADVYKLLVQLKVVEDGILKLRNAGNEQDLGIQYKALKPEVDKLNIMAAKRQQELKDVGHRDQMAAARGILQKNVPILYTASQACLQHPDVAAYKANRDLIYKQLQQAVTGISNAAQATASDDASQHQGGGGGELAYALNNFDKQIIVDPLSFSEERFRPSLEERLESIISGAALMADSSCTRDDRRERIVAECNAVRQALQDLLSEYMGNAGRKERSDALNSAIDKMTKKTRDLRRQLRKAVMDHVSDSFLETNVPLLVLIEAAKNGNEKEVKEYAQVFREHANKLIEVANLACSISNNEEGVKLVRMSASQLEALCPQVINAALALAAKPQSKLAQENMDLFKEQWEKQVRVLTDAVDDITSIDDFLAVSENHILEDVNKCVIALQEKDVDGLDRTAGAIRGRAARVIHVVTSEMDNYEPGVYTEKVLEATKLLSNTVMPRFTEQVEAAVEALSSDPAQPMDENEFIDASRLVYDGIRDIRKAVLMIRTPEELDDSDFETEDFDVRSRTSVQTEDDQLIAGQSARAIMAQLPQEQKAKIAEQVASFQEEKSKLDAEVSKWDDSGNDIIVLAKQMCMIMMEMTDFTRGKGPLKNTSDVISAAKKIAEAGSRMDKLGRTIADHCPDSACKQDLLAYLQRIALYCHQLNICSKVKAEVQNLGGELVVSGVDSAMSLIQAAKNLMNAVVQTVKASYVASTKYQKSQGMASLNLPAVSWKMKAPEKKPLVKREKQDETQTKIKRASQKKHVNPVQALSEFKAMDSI

B1: recombinant human active caspase-3 (protein)
chain: SGISLDNSYKMDYPEMGLCIIINNKNFHKSTGMTSRSGTDVDAANLRETFRNLKYEVRNKNDLTREEIVELMRDVSKEDHSKRSSFVCVLLSHGEEGIIFGTNGPVDLKKITNFFRGDRCRSLTGKPKLFIIQACRGTELDCGIETDSGVDDDMACHKIPVEADFLYAYSTAPGYYSWRNSKDGSWFIQSLCAMLKQYADKLEFMHILTRVNRKVATEFESFSFDATFHAKKQIPCIVSMLTKELYFYH
B2: activated (cleaved) Caspase-3 (endogenous, from mouse dorsal skin) (enzyme, UniProt P70677 29-277, looked up)
chain: SGIYLDSSYKMDYPEMGICIIINNKNFHKSTGMSSRSGTDVDAANLRETFMGLKYQVRNKNDLTREDILELMDSVSKEDHSKRSSFVCVILSHGDEGVIYGTNGPVELKKLTSFFRGDYCRSLTGKPKLFIIQACRGTELDCGIETDSGTDEEMACQKIPVEADFLYAYSTAPGYYSWRNSKDGSWFIQSLCSMLKLYAHKLEFMHILTRVNRKVATEFESFSLDSTFHAKKQIPCIVSMLTKELYFYH
notes: also called CP3

Columns and labels:
[1] = target: T1, α-Catenin (endogenous, from HaCaT …)
[2] = target: T2, Recombinant human α-Catenin protein
[3] = target: recombinant mouse H3/H4 heterodimer, P62806
[4] = target: Yes associated protein 1 (YAP) (endogenous, from mouse dorsal skin) (mouse, UniProt P46938 1-488, limits assumed); experiment: co-immunoprecipitation of endogenous proteins from mouse skin, Western blot
Sequence of Yes associated protein 1 (YAP) (endogenous, from mouse dorsal skin) (P46938 whole entry): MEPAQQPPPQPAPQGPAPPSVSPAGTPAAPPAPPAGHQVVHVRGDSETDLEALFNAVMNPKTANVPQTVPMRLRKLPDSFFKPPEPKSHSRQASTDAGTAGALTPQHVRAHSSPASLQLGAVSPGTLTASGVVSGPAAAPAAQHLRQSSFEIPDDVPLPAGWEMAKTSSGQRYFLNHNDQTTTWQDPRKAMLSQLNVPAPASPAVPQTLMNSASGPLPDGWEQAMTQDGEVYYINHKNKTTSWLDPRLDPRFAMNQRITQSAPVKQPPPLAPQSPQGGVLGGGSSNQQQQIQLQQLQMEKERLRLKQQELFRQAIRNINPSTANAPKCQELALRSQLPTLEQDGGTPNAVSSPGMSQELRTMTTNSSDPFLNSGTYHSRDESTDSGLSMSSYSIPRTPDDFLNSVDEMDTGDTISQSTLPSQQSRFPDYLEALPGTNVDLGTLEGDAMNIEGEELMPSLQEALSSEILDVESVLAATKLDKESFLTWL
Method: Protein extraction, Western Blot and Co-immunoprecipitation—Skin tissues were disrupted using homogenizer. Cells were washed with ice-cold PBS and collected on ice before centrifugation (4,000 rpm, 5 minutes at 4° C.), lysed in lysis buffer with protease inhibitors, and then incubated on ice for 30 minutes. After centrifugation (14,000 rpm, 15 minutes at 4° C.), the proteins (supernatant) were removed and quantified (Bradford reagent, BioRad). The NE-PER Nuclear and Cytoplasmic Extraction Reagents Kit (Thermo Scientific) was used to separate cellular fractions. For CO-IP, equal amounts of cell lysates were incubated with antibody, and immunocomplexes were captured on Protein-A/G Agarose beads. […] Membranes were blocked in 5% dry skimmed milk in PBS-T and incubated with primary antibodies (1:1000).

Binder	cleavage in HaCaT protein lysate, Western blot with antibodies for the C and N termini of α-Catenin [1]	release of 14-3-3 from α-Catenin pull-down complexes after in vitro cleavage, Western blot [1]	in vitro cleavage assay, SDS-electrophoresis and Coomassie staining [2]	in vitro cleavage assay, Coomassie staining [3]	binding result [4]
B1	addition of cleaved Caspase-3 results in a major decrease in the level of full-length α-Catenin	Caspase-3-mediated cleavage facilitates the release of 14-3-3 from α-Catenin	a dramatic decrease in the levels of full length α-Catenin (FIG. 4M) (Caspase-3 cleaved α-Catenin), giving rise to two novel bands at a molecular weight of ˜14 kDa and ˜17 kDa	Caspase-3 was not able to cleave either histones H2A/H2B or H3/H4	–
B2	–	–	–	–	no binding
